Measurements published in publication PMC6516834.

Columns and labels:
[1] = target: Ndc80-MIND-GFP co-complex (S. cerevisiae) (UniProt P40460); test: single molecule TIRF microscopy (residence time on microtubules); as a1, with free Spc24/Spc25 dimer (wild type or mutant) added in trans: sixtyfold excess over Broccoli-GFP, tenfold excess over Ndc80-MIND-GFP
[2] = target: taxol-stabilized microtubules (bovine brain tubulin) (bovine) (UniProt Q6B856); test: single molecule TIRF microscopy (residence time on microtubules); fluorescent complexes in solution on taxol-stabilized microtubules; standard BRB80 buffer; mean residence time, error by bootstrapping
[3] = target: end-labeled Ndc80 complex Nuf2 S2C Spc25 S154C (cysteine-light, concurrently labeled with Cy3 and Alexa Fluor 647, for single molecule FRET) (S. cerevisiae) (UniProt P40460); test: single molecule three-color TIRF co-localisation; end-labeled Ndc80 complex and GFP-MIND pre-incubated 1:10 for 15 min at room temperature, then tethered by anti-penta-His antibody to lipid-coated coverslips; co-localisation of GFP with Cy3 and Alexa Fluor 647

Chain of free Spc24/Spc25 dimer (Q04477 whole entry): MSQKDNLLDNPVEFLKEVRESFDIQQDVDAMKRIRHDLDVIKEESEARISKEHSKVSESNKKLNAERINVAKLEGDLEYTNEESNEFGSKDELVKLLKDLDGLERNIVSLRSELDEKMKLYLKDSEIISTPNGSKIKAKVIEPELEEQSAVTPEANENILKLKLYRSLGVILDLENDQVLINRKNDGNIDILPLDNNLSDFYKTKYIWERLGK
Chain of free Spc24/Spc25 dimer (P40014 whole entry): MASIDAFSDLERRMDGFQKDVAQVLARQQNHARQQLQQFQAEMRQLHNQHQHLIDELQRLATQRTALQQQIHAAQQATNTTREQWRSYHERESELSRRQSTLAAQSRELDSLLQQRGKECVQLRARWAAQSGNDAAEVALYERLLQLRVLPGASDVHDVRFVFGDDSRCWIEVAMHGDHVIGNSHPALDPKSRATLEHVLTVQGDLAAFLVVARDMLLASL

Row | Substance | mean residence time of the Ndc80-MIND-GFP co-complex on microtubules with a tenfold excess of the binder [1] [s] | other results
1 | free Spc24/Spc25 dimer (from UniProt Q04477 1-213; P40014 1-221) (complex) | 4.1 | 
2 | Ndc80-MIND-GFP co-complex (from UniProt P40460 1-691; P33895 1-451; Q04477 1-213; P40014 1-221; P39731 1-289; P40568 1-576; Q12143 1-216) |  | mean residence time on microtubules [2]: 9.8 s
3 | Spc24/Spc25 V159D dimer (from UniProt Q04477 1-213; P40014 1-221) (complex) | 4.2 | 
4 | MIND complex carrying an N-terminal FLAG tag on Nsl1 and a C-terminal GFP on Mtw1 (from UniProt P39731 1-289; Q12143 1-216; P40568 1-576) |  | percent of the end-labeled Ndc80 complexes in co-complex with MIND (tenfold excess of GFP-MIND) [3]: 33%
